Molecular target: rat PD-L1 (rat) (UniProt D4AE25)
Test: flow cytometry (FACS); rat cells or protein not described

YW243.55.S70 (IgG) (antibody) showed an EC50 of 0.8 nM.

From patent US20130045200A1
